One data set deals with T1, PSMA (Homo sapiens, UniProt Q04609).
T1 construct: endogenous in cells; host or cells: LNCaP cells
In words: IC50 determination by competition with [68Ga]-PSMA-617 on LNCaP cells. The class given is binding. The conditions noted are these: [68Ga]-PSMA-617 0.4 nM, 60 min on ice, natGa-labelled ligands. The procedure: In the meantime, dilution series of the compounds were prepared in 1% BSA (w/v)/HBSS in a separate 96 U-bottom deep well plate ranging from 12 µM to 153.6 pM in 1:5 dilution steps. Next, solutions (25 µL/well) of either 1% BSA (w/v)/HBSS (control) or of the respective dilution series were transferred to the LNCaP cells containing plate. Hereby, each concentration was pipetted in triplicates and each experiment was repeated three times. Subsequently, [^68Ga]-PSMA-617 (25 µL/well; 0.4 nM final concentration; AM = 26-30 MBq/nmol) in 1% BSA (w/v)/HBSS was added to all wells and the plate was incubated for 60 min on ice. Afterwards, the experiment was terminated by centrifugation at 600 g for 3 min and removal of the supernatant. The cells were then washed with ice-cold HBSS (150 µL/well), centrifuged (600 g, 3 min), and the supernatant as well as the washing fraction were combined, representing the amount of free, unbound radioligand. Bound radioligand was obtained by lysis of the cells with 1.0 N NaOH (150 µL/well; 10 min on ice). Afterwards, the plate was washed a second time with 1.0 N NaOH (150 µL/well). Hereby, the washing step was combined with the NaOH fraction. The quantification of bound and free radioligand was finally accomplished via measuring the samples in a γ-counter.

The nature of data set [1]: Lipophilicity, n-octanol/PBS distribution coefficient. The class given is physicochemical. The conditions noted are these: pH 7.4. Here is the method: Lipophilicity of the conjugates was determine after radiolabeling with ^68Ga. The PSMA ligand (0.80 MBq) was dissolved in PBS (500 µL/pH 7.4) in a reaction vial (1.5 mL; n = 10). Afterwards, n-octanol was added (500 µL) and the mixture was rigorously vortexed for 3 min. Subsequent centrifugation (Biofuge 15, Heraus Sepatech, Osterode, Germany) at 13,000 rpm for 5 min led to a phase separation. After measuring 100 µL of each phase in a γ-counter, the distribution coefficient (logD(O/PBS)) was calculated with Microsoft Excel.

Data set [2] concerns the target prostate-specific membrane antigen (PSMA) (UniProt Q04609). Nature of the data set: cell uptake of 68Ga-labelled ligand (0.4 nM) on LNCaP cells, gamma counting.
The target is the same in data set [3]. In words: competition with [68Ga]-PSMA-617 (0.4 nM) on LNCaP cells, 60 min on ice.

Where a SMILES comes first, the peptide text is derived from it. [ ]: non-standard residue; d: D form. The star is where a group is joined. X1 = CN(Cc1ccc(-c2[nH]c3cc(F)cc4c3c2CCNC4=O)cc1)C(=O)CCS*; EuK = O=C(O)CC[C@H](NC(=O)N[C@@H](CCCCN*)C(=O)O)C(=O)O; Ahx = NCCCCCC(=O)O; Mpa = O=C(O)CCS

prostate-specific membrane antigen (PSMA), sequence (Q04609 whole entry): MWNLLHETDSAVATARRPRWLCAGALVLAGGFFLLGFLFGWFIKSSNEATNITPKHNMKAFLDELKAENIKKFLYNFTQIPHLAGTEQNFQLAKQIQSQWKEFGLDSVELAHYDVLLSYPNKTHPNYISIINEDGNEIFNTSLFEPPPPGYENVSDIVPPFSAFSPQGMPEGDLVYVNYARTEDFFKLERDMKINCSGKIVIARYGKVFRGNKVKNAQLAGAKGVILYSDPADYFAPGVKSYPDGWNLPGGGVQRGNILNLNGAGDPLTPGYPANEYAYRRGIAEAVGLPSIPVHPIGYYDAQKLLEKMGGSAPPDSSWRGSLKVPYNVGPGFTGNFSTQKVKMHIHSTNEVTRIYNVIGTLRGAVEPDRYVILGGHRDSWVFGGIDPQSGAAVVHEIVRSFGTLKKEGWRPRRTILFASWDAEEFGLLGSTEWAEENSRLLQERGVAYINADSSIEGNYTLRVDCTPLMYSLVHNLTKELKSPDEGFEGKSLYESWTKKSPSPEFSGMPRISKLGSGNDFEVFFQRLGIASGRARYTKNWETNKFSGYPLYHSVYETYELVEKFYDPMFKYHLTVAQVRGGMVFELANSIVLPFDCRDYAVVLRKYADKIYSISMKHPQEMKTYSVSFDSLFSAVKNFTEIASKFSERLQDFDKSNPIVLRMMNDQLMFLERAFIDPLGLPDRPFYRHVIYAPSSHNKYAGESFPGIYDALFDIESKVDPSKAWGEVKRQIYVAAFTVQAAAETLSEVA
T1 sequence (Q04609 whole entry): as above

Usually IC50 stands for the midpoint of a concentration-inhibition curve. A lower IC50 goes with higher potency. Take `CN(Cc1ccc(-c2[nH]c3cc(F)cc4c3c2CCNC4=O)cc1)C(=O)CCSSCCC(=O)NC[C@H]1CC[C@H](C(=O)N[C@@H](Cc2ccc3ccccc3c2)C(=O)NCCCC[C@H](NC(=O)N[C@@H](CCC(=O)O)C(=O)O)C(=O)O)CC1` [Conjugate 7]: at PSMA, the IC50 was determined as 9.52 ± 2.41 nM. The “logD (n-oct/PBS)” value in data set [1] was -2.98 ± 0.21.
As to `CN(Cc1ccc(-c2[nH]c3cc(F)cc4c3c2CCNC4=O)cc1)C(=O)CCSSCCC(=O)N[C@H](CC(=O)O)C(=O)N[C@H](Cc1ccc(O)cc1)C(=O)N[C@H](Cc1ccccc1)C(=O)N[C@H](Cc1ccccc1)C(=O)NCCCCCC(=O)NCCCC[C@H](NC(=O)N[C@@H](CCC(=O)O)C(=O)O)C(=O)O` [Conjugate 8] ([Mpa](X1)[dD][dY][dF][dF][Ahx]-EuK), on PSMA, the concentration for half-maximal inhibition (IC50) came to 1.58 ± 0.94 nM. Moreover, the “logD (n-oct/PBS)” value in data set [1] was -2.83 ± 0.07.
In turn, PSMA-617 gave a % bound of total applied dose in data set [2] of 10.2%.
The compound “PSMARuc-9: DOTAGA-D-Lys(Ruc-SS)-D-Asp-β-Ala-TXA-L-Nal-KuE (peptide)” gave a half-maximal inhibitory concentration (IC50) in data set [3] of 3.03 nM. This compound also displayed a % bound of total applied dose in data set [2] of 8%.
Taken in the same sequence, the figures for “PSMARuc-10: DOTAGA-D-Lys(Ruc-SS)-D-Asp-D-Tyr-D-Phe-D-Phe-Ahx-KuE (peptide)” were 1.34 nM and 6.18%.
As for “PSMARuc-11: DOTAGA-D-Lys(Ruc-SS)-D-Asp-D-Tyr-D-Phe-L-Nal-Ahx-KuE (peptide)”, the IC50 in data set [3] was 5.34 nM. The same compound gave a % bound of total applied dose in data set [2] of 6.45%.
“PSMARuc-12: DOTAGA-D-Lys(Ruc-SS)-D-Asp-D-Tyr-D-Phe-D-Phe-Ahx-Ahx-KuE (peptide)” displayed a half-maximal inhibitory concentration (IC50) in data set [3] of 2.12 nM. This compound also displayed a % bound of total applied dose in data set [2] of 3.48%.
On the same counts, the results for “PSMARuc-13: DOTAGA-D-Lys(Ruc-Sub)-D-Asp-β-Ala-TXA-L-Nal-KuE (peptide)” are 0.67 nM and 10.8%.
Taken in the same sequence, the figures for “PSMARuc-14: Ruc-SS-MMC-D-Asp-D-Asp-β-Ala-TXA-L-Nal-KuE (peptide)” were 2.19 nM and 6.46%.
Taken in the same sequence, the figures for “PSMARuc-15: Ruc-SS-MMC-D-Asp-D-Asp-D-Tyr-D-Phe-D-Phe-Ahx-Ahx-KuE (peptide)” were 4.28 nM and 6.5%.
In data set [3], “PSMARuc-16: DOTAGA-D-Lys(Ruc-SS)-D-Asp-D-Asp-β-Ala-TXA-L-Nal-D-Lys-EuE (peptide)” had an IC50 of 0.82 nM. Also, the % bound of total applied dose in data set [2] amounted to 5.32%.
Regarding “PSMARuc-17: DOTAGA-D-Lys(Ruc-SS)-D-Asp-D-Asp-D-Tyr-D-Phe-D-Phe-Ahx-D-Lys-EuE (peptide)”, in data set [3], the IC50 is 1.38 nM. For the same compound, in data set [2], the % bound of total applied dose worked out at 5.84%.
On the same counts, the results for “PSMARuc-18: Ruc-SS-MMC-D-Asp-D-Asp-β-Ala-TXA-L-Nal-D-Lys-EuE (peptide)” are 0.69 nM and 6.54%.
The compound “Ruc-SS-D-Asp-D-Tyr-D-Phe-D-Phe-Ahx-KuE (PSMARuc-8) (peptide)” showed an IC50 in data set [3] of 1.58 nM.
In data set [3], “Ruc-SS-TXA-L-Nal-KuE (PSMARuc-7) (peptide)” returned an IC50 of 9.52 nM.

The record behind these values is patent EP4389150A1, “CONJUGATE COMPOUNDS AND THEIR USE IN CANCER TREATMENT AND DIAGNOSIS” (Technische Universität München, priority 2022, dated 2024).
